Data published in US6376753B1, “PURIFIED CYTOCHROME P450 POLYPEPTIDE CYP76B1 FROM HELIANTHUS TUBEROSUS AND ITS APPLICATIONS AS BIOCATALYST IN PARTICULAR FOR THE DEGRADATION OF ENVIRONMENTAL POLLUTANTS AND FOR ALTERING THE RESISTANCE OF PLANTS SENSITIVE TO PHENYLUREA FAMILY OF HERBICIDES” (priority 1997, dated 2002).

Assays:
[1] = test system: CYP76B1 transcripts
[2] = test system: 7-methoxyresorufin O-dealkylase activity; test: Induction of 7-methoxyresorufin O-demethylase activity in tuber slices; type: cell-based, Helianthus tuberosus; conditions: 48 hours of treatment
Description: Slices of dormant tuber of Helianthus tuberosus were placed under survival conditions in oxygenated distilled water and stirred with a current of compressed air in the presence of various metals or organic compounds (effectors).
A control was performed with DMSO alone.

[3] = test system: CYP76B1 transcripts; conditions: tuber tissues aged 48 h with the chemical
[4] = substrate: CCOc1ccc2ccc(=O)oc2c1; test: purified protein, by the assay type
Description: (§1) Yeast microsomes were prepared as described in Pierrel et al. (33) with addition of 1% SAB, 2 mM β-mercaptoethanol, 10 mM sodium disulfite and 1 mM PMSF to the extraction buffer. When indicated, 0.5 mM δ-aminolevulinic acid methyl ester (Sigma) was added to the induction medium, or cells were stored at 4° C. for 24 h before preparation of the microsomes.
(§2) Spectrophotometric measurements of P450 content and substrate binding were performed as in (Gabriac et al., 1991) and SDS-PAGE was performed as in Gabriac et al. (34). Gels were stained with Coomassie Blue R-250. Alkoxycoumarins and alkoxyresorufins O-dealkylation was measured by fluorometry (Werck-Reichhart et al., 1990). The data are means ± S.D. of triplicates.
(§3) The conversion of other molecules was assayed by TLC or HPLC analysis of polar metabolites formed from radiolabeled compounds (Cabello-Hurtado et al., 1998a, b). NADPH-cytochrome c reductase was assayed according to (Benveniste et al., 1986).
(§4) 10 μL of non-immune serum or of serum raised against purified ECOD fraction were preincubated 2 min at room temperature with 10 μL of microsomes before addition of the reaction mix. n.d.: not detectable.
(§5) Conversion was estimated from the sum of the two polar metabolites detected after TLC analysis. Data are means + S.D. of two to four determinations. n.d.: not detected.
(§6) CYP76B1 concentrations in the MCOD, ECOD, MROD and EROD fluorometric assays were 1.5 nM or 2.1 nM, depending on the coexpressed ATR1 or yeast reductases. In the CTUDM assays, CYP76B1 concentrations were 1.7 nM (ATR1) and 8 nM (yeast), respectively. It was 12 nM for the determination of the catalytic parameters of monodemethyl-CTUDM, and 1.7 nM (ATR1) or 20 nM (yeast) in the IPUDM assays. Products were quantified by direct TLC analysis of 100 μL of the acidified incubation medium after 6 min incubation at 30° C. for the CTUDM and IPUDM assays, and after 9 min incubation for the monodemethyl-CTUDM.

[5] = substrate: COc1ccc2ccc(=O)oc2c1; test: purified protein, by the assay type
Description: as §1, §2, §3, §4, §5, §6

[6] = substrate: CCOc1ccc2nc3ccc(=O)cc-3oc2c1; test: purified protein, by the assay type; conditions: other: coexpressed yeast reductase (W(R))
Description: as §1, §2, §3, §4, §5, §6

[7] = substrate: CC(C)c1ccc(NC(=O)N(C)C)cc1; test: purified protein, by the assay type
Description: as §1, §2, §3, §4, §5, §6

[8] = substrate: Cc1ccc(NC(=O)N(C)C)cc1Cl; test: purified protein, by the assay type
Description: as §1, §2, §3, §4, §5, §6

[9] = other: coexpressed reductase ATR1 (WAT11)
[10] = other: coexpressed yeast reductase (W(R))

Molecule: Cc1c(N(C)C)c(=O)n(-c2ccccc2)n1C [aminopyrine]
- fold more transcripts coding for CYP76B1 than for CYP73A1 or CYP81B1 [1]: 2 to 6 fold
- induction of 7-methoxyresorufin O-dealkylase activity [2]: very strongly induced

Molecule: [Cl][Mn][Cl] [manganese, MnCl2]
- fold more transcripts coding for CYP76B1 than for CYP73A1 or CYP81B1 [1]: 2 to 6 fold
- induction of 7-methoxyresorufin O-dealkylase activity [2]: very strongly induced

Molecule: CCC1(c2ccccc2)C(=O)NC(=O)NC1=O.[Na] [phenobarbital, 5-ethyl-5-phenyl-barbituric acid, sodium salt]
- effect on CYP76B1 mRNA accumulation / expression [3]: strongly induced
- level of CYP76B1 transcripts relative to the control [3]: 6 ×
- induction of 7-methoxyresorufin O-dealkylase activity [2]: very strongly induced

B1: CYP76B1 (Helianthus tuberosus) (protein)
chain: MDFLIIVSTLLLSYILIWVLGVGKPKNLPPGPTRLPIIGNLHLLGALPHQSLAKLAKIHGPIMSLQLGQITTLVISSATAAEEVLKKQDLAFSTRNVPDAVRAYNHERHSISFLHVCTEWRTLRRIVSSNIFSNSSLEAKQHLRSKKVEELIAYCRKAALSNENVHIGRAAFRTSLNLLSNTIFSKDLTDPYEDSGKEFREVITNIMVDSAKTNLVDVFPVLKKIDPQGIKRGMARHFSKVLGIFDQLIEERMRTGRFEQGDVLDVCLKMMQDNPNEFNHTNIKALFLDLFVAGTDTTSITIEWAMTELLRKPHIMSKAKEELEKVIGKGSIVKEDDVLRLPYLSCIVKEVLRLHPPSPLLLPRKVVTQVELSGYTIPAGTLVFVNAWAIGRDPTVWDDSLEFKPQRFLESRLDVRGHDFDLIPFGAGRRICPGIPLATRMVPIMLGSLLNNFDWKIDTKVPYDVLDMTEKNGTTISKAKPLCVVPIPLN
- Km [4, 9]: 60 µM
- kcat [4, 9]: 0.5 s⁻¹
- kcat/Km [4, 9]: 8330 M⁻¹ s⁻¹
- Km [4, 10]: 74 µM
- kcat [4, 10]: 0.167 s⁻¹
- kcat/Km [4, 10]: 2170 M⁻¹ s⁻¹
- Km [5, 9]: 808 µM
- kcat [5, 9]: 0.517 s⁻¹
- kcat/Km [5, 9]: 667 M⁻¹ s⁻¹
- Km [5, 10]: 899 µM
- kcat [5, 10]: 0.217 s⁻¹
- kcat/Km [5, 10]: 167 M⁻¹ s⁻¹
- Km [6]: 0.49 µM
- kcat [6]: 0.1 s⁻¹
- kcat/Km [6]: 200000 M⁻¹ s⁻¹
- Km [7, 9]: 289 µM
- Km [7, 10]: 361 µM
- Km [8, 9]: 179 µM
- Km [8, 10]: 202 µM
